Assay results reported in PMC8249414, “Structural basis of ALC1/CHD1L autoinhibition and the mechanism of activation by the nucleosome” (Nature Communications, 2021).

B1: single-chain antibody (scFv) against ALC1 used for crystallization (scFv, V domains shown)
VH: QVQLQQSGPGLVRPSQTLSLTCAISGDSVSDNDAAWNWVRQSPSRGLEWLGRTYYRSKWSNEYAVFVQSRITINPDTSKNQFSLHLNSVTPEDTAVYYCARATRPTGNGLDIWGQGTMVTVSS
VL: SYVLTQPPSVSVAPGQTARITCGGNNIGSKSVHWYQQKPGQAPVLVVYDDSDRPSGIPERFSGSNSGNTAALTISRVEAGDEADYYCQVWDSSSDHVVFGGGTKLTVL
notes: human scFv from a non-immunized yeast-display library; One of seven clones; also called the antibody; source: HEK293F, transfected, secreted, purified (Ni-NTA, Superdex 75)
B2: ALC1 R857Q mutant (enzyme)
chain: MERAGATSRGGQAPGFLLRLHTEGRAEAARVQEQDLRQWGLTGIHLRSYQLEGVNWLAQRFHCQNGCILGDEMGLGKTCQTIALFIYLAGRLNDEGPFLILCPLSVLSNWKEEMQRFAPGLSCVTYAGDKEERACLQQDLKQESRFHVLLTTYEICLKDASFLKSFPWSVLVVDEAHRLKNQSSLLHKTLSEFSVVFSLLLTGTPIQNSLQELYSLLSFVEPDLFSKEEVGDFIQRYQDIEKESESASELHKLLQPFLLRRVKAEVATELPKKTEVVIYHGMSALQKKYYKAILMKDLDAFENETAKKVKLQNILSQLRKCVDHPYLFDGVEPEPFEVGDHLTEASGKLHLLDKLLAFLYSGGHRVLLFSQMTQMLDILQDYMDYRGYSYERVDGSVRGEERHLAIKNFGQQPIFVFLLSTRAGGVGMNLTAADTVIFVDSDFNPQNDLQAAARAHRIGQNKSVKVIRLIGRDTVEEIVYRKAASKLQLTNMIIEGGHFTLGAQKPAADADLQLSEILKFGLDKLLASEGSTMDEIDLESILGETKDGQWVSDALPAAEGGSRDQEEGKNHMYLFEGKDYSKEPSKEDRKSFEQLVNLQKTLLEKASQEGRSLRNKGSVLIPGLVEGSTKRKRVLSPEELEDRQKKRQEAAAKRRRLIEEKKRQKEEAEHKKKMAWWESNNYQSFCLPSEESEPEDLENGEESSAELDYQDPDATSLKYVSGDVTHPQAGAEDALIVHCVDDSGHWGRGGLFTALEKRSAEPRKIYELAGKMKDLSLGGVLLFPVDDKESRNKGQDLLALIVAQHRDRSNVLSGIKMAALEEGLKKIFLAAKKKKASVHLPRIGHATKGFNWYGTEQLIRKHLAARGIPTYIYYFPRSKS
notes: ALC1 (CHD1L), human, residues 1-880 with R857Q; the mutant was made by mutagenesis; also called R857Q of ALC1; source: E. coli Rosetta (DE3), purified (Ni-NTA, Source-15S, Superdex-200)

Key:
[1] = biological target: T1, human ALC1 (residues 1-880) (human, UniProt Q86WJ1); assay: crystal structure; ALC1-scFv complex (mixed 1:1.1, purified on Superdex 200), crystallised in the presence of ADP-Mg; 3.5 Å; conditions: both partners purified
T1 construct: ALC1 (CHD1L), human, residues 1-880 cloned from cDNA; the crystallised construct holds the motor domain, the linker region and the macro domain; also called CHD1L; WT; source: E. coli Rosetta (DE3), purified (Ni-NTA, Source-15S, Superdex-200)

[2] = biological target: histone H4 (in the nucleosome) (UniProt P62799 2-103); assay: cryo-EM structure; R857Q of ALC1 (30 μM) mixed with 167NCP (6 μM), ADP-BeFx, GraFix; single-binding map 2.8 Å; a class with two copies of ALC1 on the nucleosome 3.3 Å; conditions: both partners purified

Row | Binder | binding result [1] | binding result [2]
1 | B1 | binds | 
2 | B2 |  | binds
